Measurements published in the supplement of paper PMC9112550, “Optimization of the antimicrobial peptide Bac7 by deep mutational scanning” (BMC Biology, 2022).

System: Escherichia coli TOP10
Experiment: shrunken log2 fold change of peptide-encoding DNA abundance (4.5 h post-induction vs induction); higher = less antimicrobial activity (less host growth inhibition)
Settings: time post-induction: 4.5 h; library: site-saturation at positions 5, 18, 19, 20
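Also: peptides expressed intracellularly from a pBAD plasmid library in pooled LB shake-flask culture, induced with 0.3% L-arabinose, DNA abundance read by NGS, three biological replicates, DESeq2 with apeglm shrinkage.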

Sequence	shrunken log2 fold change
RRIRRRPPRLPRPRPRPDDRPRP	0.0215
RRIRTRPPRLPRPRPRPSVIPRP	-0.268
RRIRYRPPRLPRPRPRPPPNPRP	0.873
RRIRQRPPRLPRPRPRPDSCPRP	0.0169
RRIRDRPPRLPRPRPRPHKEPRP	-0.00521
RRIRSRPPRLPRPRPRPSCRPRP	-0.0379
RRIRWRPPRLPRPRPRPGACPRP	0.188
RRIRFRPPRLPRPRPRPNGEPRP	0.0684
RRIRARPPRLPRPRPRPQACPRP	0.0559
RRIRWRPPRLPRPRPRPNLAPRP	0.0306
RRIRNRPPRLPRPRPRPAGTPRP	0.0756
RRIRIRPPRLPRPRPRPANRPRP	-0.159
RRIRIRPPRLPRPRPRPNGAPRP	0.0157
RRIRGRPPRLPRPRPRPTKIPRP	0.462
RRIRVRPPRLPRPRPRPNPWPRP	-0.0698
RRIRPRPPRLPRPRPRPFIEPRP	-0.245
RRIRHRPPRLPRPRPRPFFPPRP	-0.285
RRIRQRPPRLPRPRPRPTDNPRP	-0.335
RRIRMRPPRLPRPRPRPQLGPRP	-0.0543
RRIRVRPPRLPRPRPRPLGCPRP	-0.0466
RRIRSRPPRLPRPRPRPTAKPRP	0.528
RRIRDRPPRLPRPRPRPEYVPRP	-0.00373
RRIRIRPPRLPRPRPRPAHAPRP	-0.0674
RRIRQRPPRLPRPRPRPYDYPRP	-0.133
RRIRHRPPRLPRPRPRPMPTPRP	0.0549

Sequence	shrunken log2 fold change
RRIRFRPPRLPRPRPRPVRPPRP	1.18
RRIRPRPPRLPRPRPRPGQRPRP	0.44
RRIRTRPPRLPRPRPRPYMEPRP	2.39
RRIRLRPPRLPRPRPRPLNGPRP	-0.217
RRIRDRPPRLPRPRPRPCMEPRP	-0.0179
RRIRARPPRLPRPRPRPAMHPRP	0.589
RRIRGRPPRLPRPRPRPPSAPRP	1.07
RRIRHRPPRLPRPRPRPIDHPRP	-0.267
RRIRDRPPRLPRPRPRPGTPPRP	0.223
RRIRKRPPRLPRPRPRPSGKPRP	-0.424
RRIRGRPPRLPRPRPRPFFNPRP	0.186
RRIRKRPPRLPRPRPRPYFQPRP	-0.265
RRIRARPPRLPRPRPRPQCCPRP	0.219
RRIRDRPPRLPRPRPRPCRAPRP	-0.221
RRIRLRPPRLPRPRPRPTGEPRP	0.205
RRIRSRPPRLPRPRPRPDYHPRP	-0.271
RRIRDRPPRLPRPRPRPAACPRP	0.598
RRIRKRPPRLPRPRPRPHELPRP	0.509
RRIRDRPPRLPRPRPRPPTVPRP	0.381
RRIRNRPPRLPRPRPRPYIEPRP	-0.275
RRIRYRPPRLPRPRPRPTQIPRP	-0.292
RRIRCRPPRLPRPRPRPYQYPRP	-0.399
RRIRYRPPRLPRPRPRPEAMPRP	-0.0891
RRIRFRPPRLPRPRPRPKTNPRP	0.0585
RRIRFRPPRLPRPRPRPEEAPRP	0.253

Sequence	shrunken log2 fold change
RRIRNRPPRLPRPRPRPNDWPRP	0.0943
RRIRSRPPRLPRPRPRPINNPRP	-0.647
RRIRVRPPRLPRPRPRPRLTPRP	0.169
RRIRIRPPRLPRPRPRPMEHPRP	-0.199
RRIRRRPPRLPRPRPRPGNCPRP	0.177
RRIRTRPPRLPRPRPRPRSKPRP	-0.101
RRIRPRPPRLPRPRPRPITCPRP	0.102
RRIRVRPPRLPRPRPRPMIPPRP	-0.319
RRIRNRPPRLPRPRPRPQMYPRP	-0.864
RRIRERPPRLPRPRPRPITIPRP	-0.0388
RRIRARPPRLPRPRPRPGGDPRP	0.604
RRIRIRPPRLPRPRPRPRQEPRP	-0.131
RRIRLRPPRLPRPRPRPSYEPRP	-0.496
RRIRQRPPRLPRPRPRPRKFPRP	0.214
RRIRPRPPRLPRPRPRPMWQPRP	0.0423
RRIRHRPPRLPRPRPRPCCMPRP	-0.43
RRIRMRPPRLPRPRPRPNYTPRP	-0.434
RRIRIRPPRLPRPRPRPQYLPRP	-0.346
RRIRSRPPRLPRPRPRPKMWPRP	0.458
RRIRKRPPRLPRPRPRPEIMPRP	1.31
RRIRIRPPRLPRPRPRPKVTPRP	-0.386
RRIRPRPPRLPRPRPRPCWSPRP	0.0606
RRIRLRPPRLPRPRPRPELPPRP	-0.0217
RRIRQRPPRLPRPRPRPHIKPRP	-0.878
RRIRLRPPRLPRPRPRPRSCPRP	-0.0664

Sequence	shrunken log2 fold change
RRIRGRPPRLPRPRPRPHLIPRP	0.205
RRIRMRPPRLPRPRPRPPHVPRP	0.865
RRIRIRPPRLPRPRPRPERGPRP	0.183
RRIRIRPPRLPRPRPRPFQLPRP	0.0333
RRIRGRPPRLPRPRPRPHQFPRP	0.106
RRIRYRPPRLPRPRPRPRKVPRP	-0.208
RRIRQRPPRLPRPRPRPKRYPRP	-0.138
RRIRIRPPRLPRPRPRPCRYPRP	-0.317
RRIRNRPPRLPRPRPRPIPLPRP	0.0142
RRIRERPPRLPRPRPRPNMFPRP	-0.615
RRIRSRPPRLPRPRPRPMGSPRP	-0.205
RRIRHRPPRLPRPRPRPTQQPRP	0.0495
RRIRHRPPRLPRPRPRPMGGPRP	0.0348
RRIRNRPPRLPRPRPRPTMKPRP	-0.368
RRIRMRPPRLPRPRPRPKILPRP	0.289
RRIRNRPPRLPRPRPRPINLPRP	-0.176
RRIRNRPPRLPRPRPRPRYTPRP	-0.56
RRIRIRPPRLPRPRPRPDYMPRP	-1.09
RRIRCRPPRLPRPRPRPHGNPRP	-0.233
RRIRFRPPRLPRPRPRPSPCPRP	-0.508
RRIRNRPPRLPRPRPRPWQDPRP	-0.112
RRIRNRPPRLPRPRPRPTGPPRP	0.126
RRIRDRPPRLPRPRPRPFAEPRP	0.242
RRIRLRPPRLPRPRPRPHNAPRP	1.08
RRIRHRPPRLPRPRPRPSSQPRP	-0.152

Sequence	shrunken log2 fold change
RRIRIRPPRLPRPRPRPFKNPRP	-0.188
RRIRWRPPRLPRPRPRPPRLPRP	0.526
RRIRWRPPRLPRPRPRPWKQPRP	0.296
RRIRMRPPRLPRPRPRPKGGPRP	0.115
RRIRYRPPRLPRPRPRPITKPRP	-0.184
RRIRYRPPRLPRPRPRPHWWPRP	-0.0763
RRIRRRPPRLPRPRPRPSVAPRP	0.478
RRIRLRPPRLPRPRPRPMIPPRP	-0.0974
RRIRPRPPRLPRPRPRPAILPRP	-0.339
RRIRSRPPRLPRPRPRPTVQPRP	-0.204
RRIRNRPPRLPRPRPRPAMWPRP	-0.0838
RRIRHRPPRLPRPRPRPEQLPRP	-0.0602
RRIRCRPPRLPRPRPRPLWIPRP	-0.166
RRIRDRPPRLPRPRPRPHDGPRP	0.1
RRIRTRPPRLPRPRPRPAPEPRP	0.24
RRIRDRPPRLPRPRPRPQIIPRP	0.0399
RRIRTRPPRLPRPRPRPYGLPRP	4.72
RRIRLRPPRLPRPRPRPQKDPRP	-0.449
RRIRARPPRLPRPRPRPLYYPRP	-0.316
RRIRMRPPRLPRPRPRPHMAPRP	0.0168
RRIRHRPPRLPRPRPRPRFHPRP	-0.162
RRIRLRPPRLPRPRPRPHEIPRP	-0.298
RRIRSRPPRLPRPRPRPWNMPRP	-0.077
RRIRERPPRLPRPRPRPHIGPRP	0.00581
RRIRERPPRLPRPRPRPVGYPRP	0.161

Sequence	shrunken log2 fold change
RRIRVRPPRLPRPRPRPWGTPRP	-0.402
RRIRHRPPRLPRPRPRPSTTPRP	-0.416
RRIRLRPPRLPRPRPRPFMNPRP	-0.217
RRIRWRPPRLPRPRPRPESDPRP	0.59
RRIRQRPPRLPRPRPRPRKRPRP	-0.104
RRIRKRPPRLPRPRPRPAGEPRP	0.0321
RRIRHRPPRLPRPRPRPDMMPRP	-0.21
RRIRERPPRLPRPRPRPPYTPRP	-0.176
RRIRGRPPRLPRPRPRPGYKPRP	0.191
RRIRCRPPRLPRPRPRPWWHPRP	-0.523
RRIRERPPRLPRPRPRPQPQPRP	-0.0713
RRIRKRPPRLPRPRPRPGPCPRP	0.393
RRIRIRPPRLPRPRPRPVCKPRP	-0.21
RRIRARPPRLPRPRPRPVTGPRP	0.301
RRIRWRPPRLPRPRPRPLLPPRP	0.676
RRIRVRPPRLPRPRPRPQVLPRP	0.00638
RRIRVRPPRLPRPRPRPEVSPRP	0.0554
RRIRWRPPRLPRPRPRPDSIPRP	-0.243
RRIRWRPPRLPRPRPRPLMLPRP	-0.0143
RRIRHRPPRLPRPRPRPIIQPRP	-0.348
RRIRPRPPRLPRPRPRPWPGPRP	0.367
RRIRARPPRLPRPRPRPPLMPRP	0.408
RRIRHRPPRLPRPRPRPASNPRP	-0.456
RRIRSRPPRLPRPRPRPQKYPRP	-0.428
RRIRWRPPRLPRPRPRPVMPPRP	0.15
